# B1: G-quadruplex insulin aptamer (G-rich aptamer) (structured_DNA)
# DNA: GGTGGTGGGGGGGGTTGGTAGGGTGTCTTC
# Molecular target: insulin (UniProt P01308;P01308 25-54;90-110)
# Test: circular dichroism; 20 uM aptamer, 100 nM insulin; G4 spectrum (min 245 nm, max 275 nm) after interaction with insulin; Binding buffer 20 mM Tris-HCl, 140 mM NaCl, 5 mM KCl, 1 mM CaCl2, 1 mM MgCl2, pH 7.4, room temperature, 40-60 min; then hemin in DMSO 1 h and TMB-H2O2; random N30 control is a pool and not listed
# Conditions: protein: commercial, copies: 1;1, label: 5' biotin
# Sequence of insulin (P01308 25-54, chain 1 of 2): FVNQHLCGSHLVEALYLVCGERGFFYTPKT
# Sequence of insulin (P01308 90-110, chain 2 of 2): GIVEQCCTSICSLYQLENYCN
binder,measurement,value
B1,binding result,binds
